Source: patent publication US20100310640A1

Legend:
Conditions in all cases: remark: other sources report otherwise
[1] = target: T1, HLA-DR DRB1*0701 (human); assay: radioligand inhibition, purified HLA-DR
T1 chain 1: not shown
T1 chain 2: not shown

[2] = target: T2, HLA-DR DRB1*0401 (human); assay: radioligand inhibition, purified HLA-DR
T2 chain 1: not shown
T2 chain 2: not shown

[3] = target: T3, HLA-DR DRB1*0802 (human); assay: radioligand inhibition, purified HLA-DR
T3 chain 1: not shown
T3 chain 2: not shown

[4] = target: T4, HLA-DR DRB1*1101 (human); assay: radioligand inhibition, purified HLA-DR
T4 chain 1: not shown
T4 chain 2: not shown

[5] = target: T5, HLA-DR DRB1*0901 (human); assay: radioligand inhibition, purified HLA-DR
T5 chain 1: not shown
T5 chain 2: not shown

[6] = target: T6, HLA-DR DRB1*1201 (human); assay: radioligand inhibition, purified HLA-DR
T6 chain 1: not shown
T6 chain 2: not shown

[7] = target: T7, HLA-DR DRB4*0101 (human); assay: radioligand inhibition, purified HLA-DR
T7 chain 1: not shown
T7 chain 2: not shown

[8] = target: T8, HLA-DR DRB1*1302 (human); assay: radioligand inhibition, purified HLA-DR
T8 chain 1: not shown
T8 chain 2: not shown

[9] = target: T9, HLA-DR DRB1*0405 (human); assay: radioligand inhibition, purified HLA-DR
T9 chain 1: not shown
T9 chain 2: not shown

[10] = target: T10, HLA-DR DRB1*0404 (human); assay: radioligand inhibition, purified HLA-DR
T10 chain 1: not shown
T10 chain 2: not shown

[11] = target: T11, HLA-DR DRB1*0101 (human); assay: radiolabeled-peptide inhibition, purified HLA-DR
T11 chain 1: not shown
T11 chain 2: not shown

[12] = target: T1, HLA-DR DRB1*0701 (human); assay: radiolabeled-peptide inhibition, purified HLA-DR
[13] = target: T2, HLA-DR DRB1*0401 (human); assay: radiolabeled-peptide inhibition, purified HLA-DR
[14] = target: T12, HLA-DR DRB5*0101 (human); assay: radiolabeled-peptide inhibition, purified HLA-DR
T12 chain 1: not shown
T12 chain 2: not shown

[15] = target: T6, HLA-DR DRB1*1201 (human); assay: radiolabeled-peptide inhibition, purified HLA-DR
[16] = target: T7, HLA-DR DRB4*0101 (human); assay: radiolabeled-peptide inhibition, purified HLA-DR
[17] = target: T13, HLA-DR DRB1*0301 (human); assay: radiolabeled-peptide inhibition, purified HLA-DR
T13 chain 1: not shown
T13 chain 2: not shown

[18] = target: T9, HLA-DR DRB1*0405 (human); assay: radiolabeled-peptide inhibition, purified HLA-DR
[19] = target: T10, HLA-DR DRB1*0404 (human); assay: radiolabeled-peptide inhibition, purified HLA-DR
[20] = target: T13, HLA-DR DRB1*0301 (human); assay: radioligand inhibition, purified HLA-DR
[21] = target: T4, HLA-DR DRB1*1101 (human); assay: radiolabeled-peptide inhibition, purified HLA-DR
[22] = target: T8, HLA-DR DRB1*1302 (human); assay: radiolabeled-peptide inhibition, purified HLA-DR
[23] = target: T11, HLA-DR DRB1*0101 (human); assay: radioligand inhibition, purified HLA-DR
[24] = target: T12, HLA-DR DRB5*0101 (human); assay: radioligand inhibition, purified HLA-DR
[25] = target: HLA-DR DRB3*0101 (human); assay: radioligand inhibition, purified HLA-DR
[26] = target: T11, HLA-DR DRB1*0101 (human); assay: radioligand competition, purified HLA-DR
[27] = target: T1, HLA-DR DRB1*0701 (human); assay: radioligand competition, purified HLA-DR
[28] = target: T12, HLA-DR DRB5*0101 (human); assay: radioligand competition, purified HLA-DR
[29] = target: T4, HLA-DR DRB1*1101 (human); assay: radioligand competition, purified HLA-DR
[30] = target: T6, HLA-DR DRB1*1201 (human); assay: radioligand competition, purified HLA-DR
[31] = target: T10, HLA-DR DRB1*0404 (human); assay: radioligand competition, purified HLA-DR
[32] = target: T7, HLA-DR DRB4*0101 (human); assay: radioligand competition, purified HLA-DR
[33] = target: T8, HLA-DR DRB1*1302 (human); assay: radioligand competition, purified HLA-DR
[34] = target: T13, HLA-DR DRB1*0301 (human); assay: radioligand competition, purified HLA-DR
[35] = target: T9, HLA-DR DRB1*0405 (human); assay: radioligand competition, purified HLA-DR
[36] = target: T3, HLA-DR DRB1*0802 (human); assay: radioligand competition, purified HLA-DR
[37] = target: T14, HLA-DR molecule DRB1*0405 (human); assay: radioligand inhibition, purified HLA-DR
T14 chain 1: not shown
T14 chain 2: not shown

[38] = target: T15, HLA-DR molecule DRB1*0401 (human); assay: radioligand inhibition, purified HLA-DR
T15 chain 1: not shown
T15 chain 2: not shown

[39] = target: T16, HLA-DR molecule DRB1*1101 (human); assay: radioligand inhibition, purified HLA-DR
T16 chain 1: not shown
T16 chain 2: not shown

[40] = target: T17, HLA-DR molecule DRB4*0101 (human); assay: radioligand inhibition, purified HLA-DR
T17 chain 1: not shown
T17 chain 2: not shown

[41] = target: T18, HLA-DR molecule DRB1*0802 (human); assay: radioligand inhibition, purified HLA-DR
T18 chain 1: not shown
T18 chain 2: not shown

[42] = target: T19, HLA-DR molecule DRB1*0701 (human); assay: radioligand inhibition, purified HLA-DR
T19 chain 1: not shown
T19 chain 2: not shown

[43] = target: T20, HLA-DR molecule DRB1*1201 (human); assay: radioligand inhibition, purified HLA-DR
T20 chain 1: not shown
T20 chain 2: not shown

[44] = target: T21, HLA-DR molecule DRB1*0404 (human); assay: radioligand inhibition, purified HLA-DR
T21 chain 1: not shown
T21 chain 2: not shown

[45] = target: T22, HLA-DR molecule DRB1*1302 (human); assay: radioligand inhibition, purified HLA-DR
T22 chain 1: not shown
T22 chain 2: not shown

[46] = target: T23, HLA-DR molecule DRB1*0101 (human); assay: radioligand inhibition, purified HLA-DR
T23 chain 1: not shown
T23 chain 2: not shown

[47] = target: T24, HLA-DR molecule DRB5*0101 (human); assay: radioligand inhibition, purified HLA-DR
T24 chain 1: not shown
T24 chain 2: not shown

HNQVRQVPLQRLRIV [Her/neu.88]
IC50 [1]: 80 nM | IC50 [2]: 840 nM | IC50 [3]: 9 nM | IC50 [4]: 21 nM | IC50 [5]: 6940 nM | IC50 [6]: 42 nM | IC50 [7]: 18 nM | IC50 [8]: 270 nM | IC50 [9]: 1300 nM | IC50 [10]: 78 nM

CYGLGMEHLREVRAV [9019.0044]
IC50 [11]: 130 nM | IC50 [12]: 271 nM | IC50 [13]: 1030 nM | IC50 [14]: 3780 nM | IC50 [15]: 19000 nM | IC50 [16]: 444 nM | IC50 [17]: 265 nM | IC50 [18]: 5120 nM | IC50 [19]: 493 nM

RWCIPWQRLLLTASL [CEA.10 peptide 9019.0104]
IC50 [3]: 263 nM | IC50 [6]: 1560 nM | IC50 [20]: 7860 nM | IC50 [8]: 2330 nM

PESFDGDPASNTAPL [9019.0048]
IC50 [12]: 2820 nM | IC50 [21]: 12600 nM | IC50 [17]: 989 nM | IC50 [22]: 3900 nM | IC50 [19]: 9020 nM

LQGLPREYVNARHCL [9019.0064]
IC50 [11]: 354 nM | IC50 [12]: 1900 nM | IC50 [13]: 201 nM | IC50 [16]: 2550 nM | IC50 [17]: 9000 nM | IC50 [22]: 670 nM

GMSYLEDVRLVHRDL [9019.0002]
IC50 [12]: 5410 nM | IC50 [21]: 244 nM | IC50 [16]: 2540 nM | IC50 [17]: 27 nM | IC50 [22]: 3790 nM | IC50 [18]: 4320 nM

RPRFRELVSEFSRMA [Peptide 9019.0095]
IC50 [23]: 26 nM | IC50 [1]: 309 nM | IC50 [2]: 38 nM | IC50 [3]: 376 nM | IC50 [24]: 26 nM | IC50 [4]: 125 nM | IC50 [5]: 2320 nM | IC50 [7]: 351 nM | IC50 [20]: 6220 nM | IC50 [9]: 151 nM | IC50 [10]: 62 nM

LKSGMKELAVFREKV [Peptide 9019.0185]
IC50 [3]: 260 nM | IC50 [9]: 34 nM

CHLFYNEQQEARGVH [Peptide 9019.0023]
IC50 [23]: 2490 nM | IC50 [25]: 18900 nM | IC50 [6]: 1860 nM | IC50 [7]: 5310 nM | IC50 [10]: 3190 nM

LLTFWNPPTTAKLTI [CEA.24 (peptide 9019.0105)]
IC50 [26]: 6.9 nM | IC50 [27]: 3.7 nM | IC50 [28]: 13 nM | IC50 [29]: 52 nM | IC50 [30]: 5000 nM | IC50 [31]: 52 nM

TAKLTIESTPFNVAE [CEA.33 (peptide 9019.0106)]
IC50 [29]: 6000 nM | IC50 [32]: 53 nM | IC50 [33]: 35 nM | IC50 [31]: 41 nM

FYTLHVIKSDLVNEE [CEA.119 (peptide 9019.0114)]
IC50 [27]: 56 nM | IC50 [28]: 4500 nM | IC50 [32]: 22 nM | IC50 [34]: 80 nM | IC50 [35]: 41 nM | IC50 [31]: 169 nM

PPSMVAAGSVVAAVQ [Cyclin D1.199 (peptide 9019.0170)]
IC50 [26]: 6.8 nM | IC50 [36]: 1400 nM | IC50 [32]: 91 nM | IC50 [33]: 55 nM

VAAVQGLNLRSPNNF [Cyclin D1.209 (peptide 9019.0171)]
IC50 [26]: 44 nM

HNQVRQVPLQRLRIV [Peptide 9019.0034 (Her2/neu.88)]
IC50 [37]: 1300 nM | IC50 [38]: 840 nM | IC50 [39]: 21 nM | IC50 [40]: 18 nM | IC50 [41]: 85 nM | IC50 [42]: 80 nM | IC50 [43]: 42 nM | IC50 [44]: 78 nM | IC50 [45]: 270 nM

LREVRAVTSANIQEF [Peptide 9019.0046 (Her2/neu.350)]
IC50 [46]: 17 nM | IC50 [44]: 8.2 nM | IC50 [47]: 94 nM

LKSGMKELAVFREKV [Peptide 9019.0185 (IGFBP2.184)]
IC50 [37]: 34 nM | IC50 [41]: 260 nM

ERGPLEHLYSLHIPN [Peptide 9019.0190 (IGFBP2.249)]
IC50 [37]: 110 nM | IC50 [42]: 18 nM | IC50 [46]: 7.7 nM | IC50 [44]: 29 nM | IC50 [47]: 4000 nM

PPSMVAAGSVVAAVQ [Cyclin D1.109]
IC50 [23]: 6.8 nM | IC50 [3]: 1400 nM | IC50 [7]: 91 nM | IC50 [8]: 55 nM
